What all share (test): ELISA; recombinant human antigen coated at 1 μg/mL on Maxisorp plate overnight; antibodies 2 h at room temperature with shaking; HRP anti-human IgG, TMB, OD 450 nm; EC50 by 4PL fit
Conditions in all cases: both partners purified
For orientation: In an ELISA, binding on a coated surface is turned into a signal by an enzyme label.

Assay [1] addresses T1, Recombinant human TSLP (thymic stromal lymphopoietin) (Homo sapiens, UniProt Q969D9).
T1 construct: thymic stromal lymphopoietin, human, recombinant; The reporter and T cell assays used other lots of recombinant human TSLP (R&D Systems for the reporter assay); source: bought: AcroBiosystems

The target of assay [2] is T2, Recombinant human IL-4Rα (IL-4 receptor alpha chain) (Homo sapiens, UniProt P24394).
T2 construct: interleukin-4 receptor subunit alpha, human, recombinant; source: bought: AcroBiosystems

Assay [3] concerns the target T3, Recombinant human IL-4Rα/IL-13Rα1 receptor complex (Homo sapiens, UniProt P24394;P78552).
T3 construct: interleukin-4 receptor subunit alpha, human, recombinant; interleukin-13 receptor subunit alpha-1, human, recombinant; source: bought: AcroBiosystems

B1: IL4R-dupi parental anti-IL-4Rα antibody (dupilumab Fab arms on IgG1 Fc with K409R) (antibody, V domains shown)
VH: EVQLVESGGGLEQPGGSLRLSCAGSGFTFRDYAMTWVRQAPGKGLEWVSSISGSGGNTYYADSVKGRFTISRDNSKNTLYLQMNSLRAEDTAVYYCAKDRLSITIRPRYYGLDVWGQGTTVTVSS
VL: DIVMTQSPLSLPVTPGEPASISCRSSQSLLYSIGYNYLDWYLQKSGQSPQLLIYLGSNRASGVPDRFSGSGSGTDFTLKISRVEAEDVGFYYCMQALQTPYTFGQGTKLEIK
notes: variable region of the dupilumab heavy chain; CH1 and hinge are not described; dupilumab light chain; IgG1; Not the dupilumab analogue with native IgG4 Fc, which was used in the mouse study and the FcRn ELISA; also called IL4R-dupi parental antibody; bivalent IL4R-dupi; source: Expi293F, transiently co-transfected, purified (MabSelect SuRe)
B1: the binding result in assay [1] was “no binding”. The values for the EC50 in assay [2] and in assay [3] were around 760 pM and 190 pM, respectively.

The record behind these values is article PMC12651572 (Cells, 2025).
